According to patent publication US20180214548A1 (SHANGHAI YUNYI HEALTHCARE AND TECHNOLOGY, published 2018):

T1: B7-1 (human, UniProt P33681 35-242)
T1 sequence (looked up): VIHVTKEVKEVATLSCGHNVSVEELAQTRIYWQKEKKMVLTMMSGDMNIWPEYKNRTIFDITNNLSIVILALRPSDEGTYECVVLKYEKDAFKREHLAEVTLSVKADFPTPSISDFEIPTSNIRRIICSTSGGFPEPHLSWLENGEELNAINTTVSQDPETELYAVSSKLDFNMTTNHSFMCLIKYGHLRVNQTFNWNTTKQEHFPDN

T2: ICOS (human, UniProt Q9Y6W8 21-140, limits assumed)
T2 sequence (looked up): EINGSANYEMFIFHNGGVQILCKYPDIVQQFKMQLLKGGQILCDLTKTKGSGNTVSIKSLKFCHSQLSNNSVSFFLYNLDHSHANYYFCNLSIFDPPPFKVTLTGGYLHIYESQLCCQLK

T3: CTLA4 (human, UniProt P16410 37-162, limits assumed)
T3 sequence (looked up): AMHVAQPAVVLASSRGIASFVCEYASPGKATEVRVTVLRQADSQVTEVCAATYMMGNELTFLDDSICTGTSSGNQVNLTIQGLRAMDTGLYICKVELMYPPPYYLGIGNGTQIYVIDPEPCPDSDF


Assays:
[1] = molecular target: T4, cyno PD-1^ECD-hFc protein (cyno monkey, UniProt B0LAJ3 25-167); experiment: ELISA, coated cyno PD-1ECD-hFc; antibody 1 nM
T4 construct: Prepared by the method for Immunogen A; also called Cyno Monkey PD-1^ECD-hFc; cyno monkey PD-1-hFc; not shown: human IgG Fc fragment (hFc) and its junction to the ECD
T4 sequence (B0LAJ3 entry or part of it limits assumed): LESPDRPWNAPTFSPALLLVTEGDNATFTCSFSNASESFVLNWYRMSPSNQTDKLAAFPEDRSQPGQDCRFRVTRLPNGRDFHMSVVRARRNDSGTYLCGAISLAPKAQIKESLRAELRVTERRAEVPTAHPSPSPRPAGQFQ
Procedure: (§1) 100 uL of the diluted recombinant proteins were added to each well of 96-well plate. The plates were sealed with plastic film and incubated at 4° C. overnight. The plates were washed twice with wash buffer (PBS+0.01% (v/v) Tween20), and incubated with blocking buffer (PBS+0.01% (v/v) Tween20+1% (w/w) BSA) at room temperature for 2 hours. The blocking buffer was aspirated away, and 100 uL of purified anti-PD-1 antibodies were added to each well and incubated for 2 hours at 37° C. The plates were washed three times with wash buffer (PBS+0.01% (v/v) Tween20). HRP-conjugated secondary antibody (Sigma) was added to each well and incubated for 2 hours at 37° C. After the plates were washed three times with wash buffer, 100 uL TMB substrate was added to each well and incubated for 30 minutes at room temperature. 100 uL stop solution (0.1N HCl) was added to each well to stop the reaction. The absorbance at 450 nm was measured with an ELISA plate reader (384plus SpectraMax, Molecular Devices).

[2] = molecular target: T4, cyno PD-1^ECD-hFc protein; experiment: ELISA, coated cyno PD-1ECD-hFc; antibody 10 nM
Procedure: as §1

[3] = molecular target: T5, human PD-1^ECD-hFc protein (Immunogen A) (human, UniProt Q15116 25-167); experiment: ELISA, coated human PD-1ECD-hFc; antibody 100 nM
T5 construct: Biotinylated for the Octet assay; also called PD-1-hFc; hPD-1^ECD-hFc; not shown: human IgG Fc fragment (hFc)
T5 sequence (Q15116 25-167): as the sequence (B0LAJ3 entry or part of it limits assumed) above, with E2D, A10P, L19V, A35T, R75Q counted along it
Procedure: as §1

CD28 = CD28 (human, UniProt P10747 19-152); experiment: ELISA, coated protein 1 ug/mL; antibody concentration not stated
CD28, sequence (P10747 19-152 limits assumed): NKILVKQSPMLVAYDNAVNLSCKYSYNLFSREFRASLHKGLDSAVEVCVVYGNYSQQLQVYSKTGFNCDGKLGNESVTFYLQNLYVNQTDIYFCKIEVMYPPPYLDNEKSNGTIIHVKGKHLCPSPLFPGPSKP
Procedure: as §1

B7-1 = molecular target: T1, B7-1; experiment: as above
Procedure: as §1

ICOS = molecular target: T2, ICOS; experiment: as above
Procedure: as §1

CTLA4 = molecular target: T3, CTLA4; experiment: as above
Procedure: as §1

[4] = molecular target: T5, human PD-1^ECD-hFc protein (Immunogen A); experiment: as above
Procedure: as §1

[5] = molecular target: T5, human PD-1^ECD-hFc protein (Immunogen A); experiment: protein-based receptor-ligand blocking ELISA: coated PD-1ECD-hFc, blocked ligand biotinylated PD-L1ECD, streptavidin-HRP
Procedure: Purified PD-1^ECD-hFc (Example 2) was diluted with PBS to a final concentration of 1.0 ug/mL, and 100 uL diluted PD-1^ECD-hFc were added to each well of a 96-well plate that was then sealed with plastic film and incubated at 4° C. overnight. The plate was washed twice with wash buffer (PBS+0.01% (v/v) Tween 20) and incubated with blocking buffer (PBS+[…]) at room temperature for 2 hours. The blocking buffer was aspirated, and 50 uL purified anti-PD-1 antibodies from Example 2 were added to each well of 96-well plate. […] The plate was washed three times with wash buffer (PBS+0.01% (v/v) Tween 20). 100 uL HRP-conjugated streptavidin (Sigma) were then added to each well and incubated at 37° C. for 2 hours. The plate was then washed three times with wash buffer, and 100 uL TMB substrate were added to each well. After 30 minutes of incubation at room temperature, the reaction was stopped by adding 100 uL stop solution (0.1N HCl). The absorbance at OD450 nm was measured with an ELISA plate reader (384plus SpectraMax, Molecular Devices).

OD450 nm [1]	OD450 nm [2]	OD450 nm [3]	OD450 nm (CD28)	OD450 nm (B7-1)	OD450 nm (ICOS)	OD450 nm (CTLA4)	OD450 nm [4]	IC50 (read off the curve) [5]	Binder
1.4	1.62	3.05	0.061	0.271	0.173	0.135	2.76	~0.9 nM	chimeric anti-PD-1 antibody 76G5B3 (antibody, V domains shown, Purified from hybridoma of Harbour H2L2 mice: human variable regions, rat constant regions) VH: QVQLVESGGGVVQPGRSLRLSCAASGFTFSDYGFHWVRQAPGKGLEWVAVIWYDGSNEYYTDSVKGRFTISRDNSKNTLYLQMNSLRAEDTAMYFCVVNPFDYWGQGTLVTVSS VL: DIQMTQSPSSLSAFVGDRVTITCRASQGINHYLAWYQQKPGKAPNLLILAASTLLSGVPSRFGGRGSGTDFTLIISSLQPEDVATYYCQKYDSAPYTFGQGTKLEIK
1.03	1.51	3.05	0.062	0.36	0.483	0.172	2.69	~1 nM	chimeric anti-PD-1 antibody 32B5C7 (antibody, V domains shown, Purified from hybridoma of Harbour H2L2 mice: human variable regions, rat constant regions) VH: EVQLLESGGGLVQPGGSLRLSCAASGFTFSSYAMSWVRQAPGKGLEWVSTISGSGGTTYYADSVKGRFTISRDNSKNTLYLQMNSLRAEDTAVYYCTLTGDPDYWGQGTLVTVSS VL: EIVLTQSPATLSLSPGERATLSCRASQSVSSYLAWYQQKPGQAPRLLIYDASKRATGIPARFSGSGSGTDFTLTISSLEPEDFAVYYCQQRNNWPLTFGGGTKVEIK
2.45	2.63	2.73	0.144	0.154	0.128	0.091	2.25	~0.4 mg/L	chimeric anti-PD-1 antibody 21G8F11 (antibody, V domains shown, Purified from hybridoma of Harbour H2L2 mice: human variable regions, rat constant regions) VH: EVQLLESGGGLAQPGGSLRLSCAASGFSFNTYLMHWVRQAPGKGLEWVSAISGGGGNTYYADSVKGRFTISRDNSKNTLYLQMNSLRAEDTAVYYCAKENRIPVAPFDYWGQGTLVTVSS VL: DIQMTQSPSTLSASVGDRVTITCRASQSISTWLAWYQQKPGKAPKLLIYKASSLESGVPSRFSGSGSGTEFTLTISSLQPDDLATYYCQQYNSFSWTFGQGTKVEIK
